Where a chain is given by its changes, count along the chain named. Names may count otherwise.
B1: SsoRadA (Sulfolobus solfataricus RadA) (Saccharolobus solfataricus P2) (protein)
chain: MSNEVEQKKNIKTINDLPGISQTVINKLIEAGYSSLETLAVASPQDLSVAAGIPLSTAQKIIKEARDALDIRFKTALEVKKERMNVKKISTGSQALDGLLAGGIETRTMTEFFGEFGSGKTQLCHQLSVNVQLPPEKGGLSGKAVYIDTEGTFRWERIENMAKALGLDIDNVMNNIYYIRAINTDHQIAIVDDLQELVSKDPSIKLIVVDSVTSHFRAEYPGRENLAVRQQKLNKHLHQLTRLAEVYDIAVIITNQVMARPDMFYGDPTVAVGGHTLYHVPGIRIQLKKSRGNRRIARVVDAPHLPEGEVVFALTEEGIRDAEE
B2: SsoRadA (Sulfolobus solfataricus RadA) (Saccharolobus solfataricus P2; R83E) (protein)
chain: B1 chain with R83E
B3: SsoRadA (Sulfolobus solfataricus RadA) (Saccharolobus solfataricus P2; R83A) (protein)
chain: B1 chain with R83A
B4: SsoRadA (Sulfolobus solfataricus RadA) (Saccharolobus solfataricus P2; F73D) (protein)
chain: B1 chain with F73D

Substrate: Nc1ncnc2c1ncn2[C@@H]1O[C@H](COP(=O)(O)OP(=O)(O)OP(=O)(O)O)[C@@H](O)[C@H]1O
Assay: purified protein
Settings: labelled compound, ΦX174 ssDNA, Mg2+, 65°C

Protein	Km (5.0 μM protein) [µM]	kcat (5.0 μM protein) [s⁻¹]	other results
B1	–	–	Km (3.0 μM protein): 300 ± 10 µM; kcat (3.0 μM protein): 0.00085 ± 1.7e-05 s⁻¹
B2	460 ± 60	0.000867 ± 6.7e-05	–
B3	–	–	Km (2.5 μM protein): 210 ± 10 µM; kcat (2.5 μM protein): 0.00152 ± 1.7e-05 s⁻¹
B4	490 ± 30	0.00085 ± 1.7e-05	–
